Data on one molecule can be found in PMC11573672, “Analysis of the structure and interactions of the SARS-CoV-2 ORF7b accessory protein” (Proceedings of the National Academy of Sciences of the …, 2024).

The target of the experiment is T1, SARS-CoV-2 ORF7b accessory protein, full length, with C-terminal SA linker and Strep-tag II (SARS-CoV-2, UniProt P0DTD8 1-43).
T1 construct: ORF7b of SARS-CoV-2, 43 residues, full length; NMR samples are isotope labelled on chosen amino acids (Leu, Phe and others); Forms heterogeneous multimers; no defined number of copies; also called ORF7b-ST; ORF7b^L:F; not shown: Strep-tag II, C-terminal, kept
T1 chain: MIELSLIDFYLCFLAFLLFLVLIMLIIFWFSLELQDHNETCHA
Put plainly: solid-state NMR (2D hChH reverse-MIRROR, intermolecular polarization transfer). The following applies: both partners purified.

B1: E-cadherin transmembrane domain (E641-R673), purified, Leu-labelled, for solid-state NMR (domain or fragment, human, UniProt P12830-2 641-673, looked up)
chain: EAGLQIPAILGILGGILALLILILLLLLFLRRR
notes: also called E-cadTM; E-cadTM^L; source: wheat-germ cell-free synthesis, purified
Take B1: the binding result is on record as “binds”.
